The text below walks through data of patent US20230310629A1, “BISPECIFIC ANTIBODY-DRUG CONJUGATES TARGETING EGFR AND MUC1 AND USES THEREOF” (Merck Patent GmbH, priority 2020, published 2023).

For one data set, the target named is human MUC1-VNTR peptide (Homo sapiens, UniProt P15941). Briefly: Biacore binding to human MUC1-VNTR peptide (Example 1). How it is done: An anti-MUC1 scFv (H02) was developed by affinity maturation of anti-MUC1 antibody HT186-D11 (see Thie H. et al. PLoS One […], 6, 1, e15921) using ribosome display selection. For the scFv library, CDRs H1, H2, H3 and L3 (SEQ ID NOs: 4, 5, 6, and 9) were targeted. scFv ribosome display selections were then performed against a biotinylated synthetic VNTR peptide of MUC ([…]-biotin) (SEQ ID NO:10).

The subject of the next data set is WISH cells. Briefly: WISH cell binding (Example 1). Details: species or system human; unit not given here.
Where [1] appears, read: human MUC1-VNTR, second data set.

B1: 1993-H02: anti-MUC1 antibody variant from affinity maturation of HT186-D11, with HT186-D11 light chain; developed as scFv (antibody, V domains shown)
VH: QMQLVQSEAELKKPGASVKVSCKASGYSFTSHFMHWVRQAPGQGLEWMGWIDPVTGGTKYAQNFQGWVTMTRDTSIRTAYLELSRLRSDDTAMYYCAREARADRGQFDKWGQGTLVTVAS
VL: QSVLTQPPSVSVAPGKTARITCGGNNIGSKSVHWYQQKPGQAPALVIYYGSNRPSGIPERFSGSNSGNTATLTISRVEAGDEADYYCQVWDSSSDWVFGGGTKLTVL
B1: the “Turbidity A600” value is 0.15. In addition, in the data set with human MUC1-VNTR peptide (human MUC1-VNTR peptide, first data set), the kd is recorded as 2.14E−04 ½. In the data set with human MUC1-VNTR peptide (setting [1]), this molecule returned a ka1 of 126000 M⁻¹ s⁻¹ and a kd1 of 0.0017 s⁻¹. In addition, the Bmax with WISH cells came to 128920.
